According to patent US20160289698A1 (TRUSTEES OF DARTMOUTH COLLEGE, published 2016):
Blank lines part the entries; values can stand above or below the binder they belong to.

Tests used:
Assay in all cases: yeast two-hybrid (LexA-KMD bait, B42-ARR prey, X-gal)
[1] = target: T1, ARR20 (type-B ARR subfamily-3) (Arabidopsis, UniProt Q9LZJ8 1-426, limits assumed)
T1 sequence (looked up): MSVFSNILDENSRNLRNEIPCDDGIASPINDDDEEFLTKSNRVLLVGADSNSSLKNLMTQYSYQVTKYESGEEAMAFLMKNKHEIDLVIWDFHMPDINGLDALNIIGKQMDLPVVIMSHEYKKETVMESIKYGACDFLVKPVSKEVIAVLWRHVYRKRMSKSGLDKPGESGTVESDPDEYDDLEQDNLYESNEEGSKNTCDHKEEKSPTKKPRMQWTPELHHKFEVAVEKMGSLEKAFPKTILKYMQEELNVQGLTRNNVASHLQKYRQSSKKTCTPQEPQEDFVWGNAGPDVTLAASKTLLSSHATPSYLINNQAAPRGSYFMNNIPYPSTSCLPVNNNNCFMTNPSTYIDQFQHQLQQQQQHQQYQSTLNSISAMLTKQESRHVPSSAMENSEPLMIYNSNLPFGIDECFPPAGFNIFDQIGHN
Text: (§1) The DUPLEX-A™ system (OriGene Technologies) was used for yeast two-hybrid analysis of interactions. KMD cDNAs were cloned into the pGilda bait vector, which produces an in-frame fusion with the LexA DNA-binding domain. Type-B ARR coding sequences were cloned into the pJG4-5 prey vector, which produces a B42 activation domain. The yeast strain EGY48 (MATa, trp1, his3, ura3, leu2::6 LexAop-LEU2) that contains the lacZ reporter plasmid pSH18-34 was transformed with the appropriate “bait” and “prey” plasmids. Interactions were tested on 5-bromo-4-chloro-3-indolyl-p-D-galactopyranoside (X-gal) medium (Ryu, et al. (2005) Cell 120(3): 395-406).
(§2) The KMD proteins also interacted with ARR20 (type-B ARR subfamily-3), but not with ARR19 (subfamily-2) and ARR21 (subfamily-3). […] All four KMD proteins interacted with both ARR1 and ARR12 in a BiFC assay. Strong fluorescence was detected in the nuclei of cells, consistent with the subcellular localization of the type-B ARRs (Hwang & Sheen J (2001) Nature 413(6854):383-389; Mason, et al. (2004) Plant Physiol. 135(2):927-937).

[2] = target: T2, ARR2 (Arabidopsis, UniProt Q9ZWJ9 1-664, limits assumed)
T2 construct: also called type-B response regulator ARR2
T2 sequence (looked up): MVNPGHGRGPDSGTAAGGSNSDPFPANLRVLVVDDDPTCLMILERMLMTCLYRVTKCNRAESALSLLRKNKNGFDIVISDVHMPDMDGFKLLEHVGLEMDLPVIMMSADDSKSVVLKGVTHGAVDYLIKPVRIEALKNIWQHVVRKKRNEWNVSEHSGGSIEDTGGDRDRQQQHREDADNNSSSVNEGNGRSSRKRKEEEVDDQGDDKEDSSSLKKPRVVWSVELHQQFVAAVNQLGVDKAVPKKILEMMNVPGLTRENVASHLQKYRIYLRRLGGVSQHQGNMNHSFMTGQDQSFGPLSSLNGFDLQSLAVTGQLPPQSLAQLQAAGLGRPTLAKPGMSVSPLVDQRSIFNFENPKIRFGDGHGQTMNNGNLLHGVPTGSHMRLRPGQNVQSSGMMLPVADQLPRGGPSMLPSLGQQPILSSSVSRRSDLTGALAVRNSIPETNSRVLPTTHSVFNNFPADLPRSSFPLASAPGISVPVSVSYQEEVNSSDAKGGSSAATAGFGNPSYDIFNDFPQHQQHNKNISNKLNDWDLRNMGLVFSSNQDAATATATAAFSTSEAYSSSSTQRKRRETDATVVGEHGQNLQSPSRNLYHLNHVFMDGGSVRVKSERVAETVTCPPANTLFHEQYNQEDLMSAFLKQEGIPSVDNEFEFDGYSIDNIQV
Text: as §1, §2

[3] = target: T3, ARR21 (subfamily-3) (Arabidopsis, UniProt Q9LYP5 1-613, limits assumed)
T3 sequence (looked up): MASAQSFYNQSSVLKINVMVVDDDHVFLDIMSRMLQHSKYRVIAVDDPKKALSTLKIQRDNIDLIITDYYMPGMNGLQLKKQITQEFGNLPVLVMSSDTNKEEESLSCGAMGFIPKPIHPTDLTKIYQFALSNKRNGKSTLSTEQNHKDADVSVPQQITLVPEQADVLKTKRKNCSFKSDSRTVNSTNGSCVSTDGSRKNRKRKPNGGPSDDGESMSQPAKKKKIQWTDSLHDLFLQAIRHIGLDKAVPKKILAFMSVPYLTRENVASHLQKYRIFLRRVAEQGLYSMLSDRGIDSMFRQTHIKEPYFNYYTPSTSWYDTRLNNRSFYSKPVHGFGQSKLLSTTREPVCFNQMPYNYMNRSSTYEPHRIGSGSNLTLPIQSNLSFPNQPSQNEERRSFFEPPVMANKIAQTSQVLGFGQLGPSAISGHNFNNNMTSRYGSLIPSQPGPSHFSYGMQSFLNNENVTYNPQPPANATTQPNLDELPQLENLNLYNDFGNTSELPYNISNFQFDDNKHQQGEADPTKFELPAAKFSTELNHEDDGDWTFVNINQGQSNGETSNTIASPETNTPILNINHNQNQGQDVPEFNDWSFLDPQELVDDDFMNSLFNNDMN
Text: as §1, §2

[4] = target: T4, ARR12 (Arabidopsis, UniProt P62598 1-596)
T4 construct: YFP^N or YFP^C fusion of the full-length cDNA in BiFC; also called AtARR12; type-B response regulator AtARR12
T4 sequence (looked up): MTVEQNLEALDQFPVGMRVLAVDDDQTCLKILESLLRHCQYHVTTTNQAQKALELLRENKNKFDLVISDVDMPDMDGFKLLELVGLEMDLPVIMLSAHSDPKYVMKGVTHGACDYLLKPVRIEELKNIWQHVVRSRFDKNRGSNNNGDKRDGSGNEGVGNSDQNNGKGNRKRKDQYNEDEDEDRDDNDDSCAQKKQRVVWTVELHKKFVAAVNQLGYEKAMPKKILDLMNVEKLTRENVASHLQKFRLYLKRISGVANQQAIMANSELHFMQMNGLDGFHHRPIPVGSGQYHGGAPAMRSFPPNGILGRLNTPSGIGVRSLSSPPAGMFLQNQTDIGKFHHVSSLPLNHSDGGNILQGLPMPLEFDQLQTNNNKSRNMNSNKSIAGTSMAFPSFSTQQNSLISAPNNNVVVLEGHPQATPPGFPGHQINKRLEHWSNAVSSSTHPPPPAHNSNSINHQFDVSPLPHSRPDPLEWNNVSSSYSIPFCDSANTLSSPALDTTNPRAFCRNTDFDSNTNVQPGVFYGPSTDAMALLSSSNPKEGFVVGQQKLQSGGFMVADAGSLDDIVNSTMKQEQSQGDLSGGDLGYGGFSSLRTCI
Text: as §1, §2

[5] = target: T5, ARR10 (Arabidopsis, UniProt O49397 1-552, limits assumed)
T5 construct: also called type-B response regulator ARR10
T5 sequence (looked up): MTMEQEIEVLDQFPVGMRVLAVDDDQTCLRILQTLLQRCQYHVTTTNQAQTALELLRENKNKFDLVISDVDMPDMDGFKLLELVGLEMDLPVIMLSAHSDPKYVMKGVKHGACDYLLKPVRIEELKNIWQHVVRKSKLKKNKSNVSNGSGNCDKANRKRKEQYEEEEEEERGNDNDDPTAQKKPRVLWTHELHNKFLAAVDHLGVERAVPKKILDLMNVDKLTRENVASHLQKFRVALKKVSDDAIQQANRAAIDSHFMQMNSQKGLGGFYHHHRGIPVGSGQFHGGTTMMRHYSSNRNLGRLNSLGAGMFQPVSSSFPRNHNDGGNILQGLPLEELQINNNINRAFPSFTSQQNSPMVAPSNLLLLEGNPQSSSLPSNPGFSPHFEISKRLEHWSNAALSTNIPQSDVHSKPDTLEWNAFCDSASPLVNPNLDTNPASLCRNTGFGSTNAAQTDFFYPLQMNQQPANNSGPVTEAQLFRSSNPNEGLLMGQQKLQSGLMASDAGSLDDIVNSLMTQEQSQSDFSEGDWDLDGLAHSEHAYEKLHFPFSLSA
Text: as §1, §2

- binding result [1]: binds
- binding result [2]: binds
- binding result [3]: no binding
- binding result [4]: binds
- binding result [5]: binds
B1: KISS ME DEADLY 3 (KMD3) (other, Arabidopsis, UniProt O80582 1-409, looked up)
chain: MTMEVSKKKGGDFQQCHELIPGLPSELALECLVRVPFQFQSAMRSVCRSWRSLLSDSSFIQERRRCGKTELLLCLVQPLTPPIPASKSVDETLMVDEKKSEDESHPRVFCTPRFGLSVYNAAMSTWHRVAFPEEEQIPLFCECVVLQDAGKILLIGGWDPETLQPTRDVYVLEFAGRKWRRGAPMKESRSFFACASVSPTKVYVAGGHDDQKNALRSAEVYDVEKDEWSSVTPMTEGRDECQGFAVGMGLRFCVLSGYGTESQGRFRSDGEIYDPATDSWSRIDNVWRFPDTSPRGRTAGDFRSSSTLWCFTDTDLQSERRWETNDDSRNLKLDLQSIQLPMTGSSVFAGSLGGESVVMIGGKRESEGEGEGGVMMKMTTEKKMGKWSHHVHIPCDFSTLPFSHASIYV
notes: Full-length protein; LexA fusion in yeast two-hybrid, YFP^N or YFP^C fusion in BiFC; also called At2g44130

- binding result [1]: binds
- binding result [2]: binds
- binding result [3]: no binding
- binding result [4]: binds
- binding result [5]: binds
B2: KISS ME DEADLY 4 (KMD4) (other, Arabidopsis, UniProt Q9M1Y1 1-418, looked up)
chain: MGVSKKKSGEIRGDLIPGLPEELAIECLVRVPFQFHSSIKSVCRSWKCVISSRSFIKERIGFGKAESLLCLVQPLTSPPSPAMMEGGEMSQKKKEEEEGESQMTQQLLQPRITGTPLYGLSVYNATLDTWHRVAIPERIPLFCECVAIQDAGKVLLIGGWDPETLQPVRDVFVLDFFAGEGSGRRFRRGRPMSAARSFFACASVGSTKVYVAGGHDDQKNALRSAEVYDVEKDEWSMLPPMTEGRDECHGFSMATDPGFCVLSGYGTETQGQFRSDGEIYDPITNSWSTIENVWPFPDLSPRGRTAAAAAEFPGDFRGCRLWCFIDSERQSQPHWEVEDDSMKWKVIMDTIRLPVTTMTSVFAGSLSGQAVAMIGGGGEESGTMMVKTTAEKNGGKWSHVNTPSGFSSLPFSCSSIYV
notes: Full-length protein; LexA fusion in yeast two-hybrid, YFP^N or YFP^C fusion in BiFC; also called At3g59940
